“Also recorded” adds a separate entry of the source. Ends that are not written are not given here.
What was measured:
fibrinogen [1] = target: T1, fibrinogen (Homo sapiens, UniProt P02671+P02675+P02679); assay: Fibrinogen binding assay by ELISA; conditions: plate coated with 1 mg/ml fibrinogen, various concentrations, anti-His6-peroxidase detection
T1 sequence (P02671 20-629 limits assumed): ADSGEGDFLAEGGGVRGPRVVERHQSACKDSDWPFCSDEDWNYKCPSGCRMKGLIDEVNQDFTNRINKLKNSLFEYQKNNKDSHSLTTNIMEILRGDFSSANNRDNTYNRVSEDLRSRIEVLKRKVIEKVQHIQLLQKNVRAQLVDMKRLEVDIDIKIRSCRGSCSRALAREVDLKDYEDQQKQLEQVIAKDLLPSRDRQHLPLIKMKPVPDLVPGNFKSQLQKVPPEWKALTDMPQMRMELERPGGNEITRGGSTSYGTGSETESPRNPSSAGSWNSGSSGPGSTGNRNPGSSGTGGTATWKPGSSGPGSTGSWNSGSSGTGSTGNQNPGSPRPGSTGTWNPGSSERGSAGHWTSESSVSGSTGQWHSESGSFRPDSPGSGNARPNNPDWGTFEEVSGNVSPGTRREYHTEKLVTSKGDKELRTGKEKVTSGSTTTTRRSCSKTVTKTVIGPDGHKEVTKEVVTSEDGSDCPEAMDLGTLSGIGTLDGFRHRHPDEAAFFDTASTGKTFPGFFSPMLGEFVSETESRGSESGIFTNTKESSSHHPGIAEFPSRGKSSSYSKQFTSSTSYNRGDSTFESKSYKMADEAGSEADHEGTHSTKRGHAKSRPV
T1 sequence (P02675 31-491): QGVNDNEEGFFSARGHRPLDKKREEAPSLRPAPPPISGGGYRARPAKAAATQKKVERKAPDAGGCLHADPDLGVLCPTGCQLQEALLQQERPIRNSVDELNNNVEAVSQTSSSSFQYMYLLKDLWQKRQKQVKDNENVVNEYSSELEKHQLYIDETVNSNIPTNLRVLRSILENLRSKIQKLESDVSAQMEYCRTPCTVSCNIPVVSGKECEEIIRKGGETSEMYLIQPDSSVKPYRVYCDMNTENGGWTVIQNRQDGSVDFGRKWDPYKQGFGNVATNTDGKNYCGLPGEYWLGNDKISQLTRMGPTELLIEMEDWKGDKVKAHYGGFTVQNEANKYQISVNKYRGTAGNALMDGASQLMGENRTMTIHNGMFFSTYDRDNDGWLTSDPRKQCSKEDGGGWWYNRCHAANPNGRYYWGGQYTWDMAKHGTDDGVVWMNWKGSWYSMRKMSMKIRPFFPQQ
T1 sequence (P02679 27-433 limits assumed): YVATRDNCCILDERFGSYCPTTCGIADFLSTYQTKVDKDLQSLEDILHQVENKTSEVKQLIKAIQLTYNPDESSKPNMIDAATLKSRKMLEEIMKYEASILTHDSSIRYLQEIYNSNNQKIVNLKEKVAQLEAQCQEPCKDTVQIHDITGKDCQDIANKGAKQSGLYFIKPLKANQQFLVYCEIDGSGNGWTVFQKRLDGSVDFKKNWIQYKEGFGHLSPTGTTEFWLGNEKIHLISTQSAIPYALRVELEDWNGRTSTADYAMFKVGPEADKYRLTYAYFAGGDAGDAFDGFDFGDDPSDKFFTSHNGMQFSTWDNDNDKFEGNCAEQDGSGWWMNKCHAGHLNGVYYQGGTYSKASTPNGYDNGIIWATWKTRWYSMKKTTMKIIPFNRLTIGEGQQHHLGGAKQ
Procedure: (§1) A polystyrene 96-well plate (Nunc® Maxisorp EUSA-plates) was coated with 1 mg/ml fibrinogen (Tisseel®, Baxter AG, Vienna) overnight at 4° C. and then blocked with blocking solution (PBS+1% BSA) for 2 hours at room temperature CRT). After washing three times with PBS, purified peptides were added in various dilutions to the plate and incubated for 1 hour at RT. After the three times washing with PBS, a monoclonal anti-His6-peroxidase antibody (Sigma-Aldrich, Vienna), diluted in PBS+0.1% Tween (Sigma-Aldrich, Vienna) was added and incubated for 1 hour at RT. Finally, the plate was washed three times with PBS again and wells were incubated with o-phenylenediaminehydrochlorid substrate. Absorbance was measured at 492 nm and 620 nm. For fibrin binding analysis, the plate was first coated with fibrinogen overnight at 4° C. and then incubated with 10 I.U./ml thrombin (Tisseel, Baxter AG, Vienna) for 30 minutes at 37° C. The following procedure was the same as described above. For the surface plasmon resonance (SPR) method fibrinogen was coupled to a gold sensor chip (10% COOH—(PEG)6-C11—SH, 90% OH(PEG)3-C11—SH; Reichert Analytical, NY, USA) by amine chemistry using EDC (1-ethyl-3-[3-dimethylaminopropyl]carbodiimide hydrochloride) and NHS (N-hydroxysuccinimide) (Pierce, Ill., USA). Uncoupled sites on the gold sensor chip were blocked with 1 M ethanolamine pH 8.5 (Sigma-Aldrich, MO, USA). The purified recombinant proteins and peptides were passed over the chip's surface at a flow rate of 0.4 ml/min to 0.8 ml/min and allowed to interact. The signals were detected and recorded at the Reichert SR7000 Surface Plasmon Resonance Analytical Instrument (Reichert Analytical, NY, USA). After each measurement the sensor chip surface was regenerated by a pulse with 100 mM phosphoric acid (Mallinckrodt Chemicals, NJ, USA) after each application of the samples. Association and dissociation signals were fitted to one association curve using a prism software calculation program.
Purified, proteins and peptides in different concentrations were used for testing the binding affinity to fibrinogen and fibrin (FIG. 5).

fibrinogen [2] = target: T1, fibrinogen; assay: Surface plasmon resonance (SPR) binding to fibrinogen coupled to gold sensor chip; conditions: fibrinogen on sensor chip; fitted association curves
Procedure: as §1

[3] = tested on: mouse myoblast cell line (C2C12); assay: Biological activity: viability (MTT) assay of mouse myoblast C2C12 cells; assay type: cell-based
Procedure: A moose myoblast cell line (C2C12; ECACC (Sigma-Aldrich, Vienna)) was grown in Dulbecco's Modified Eagle Medium (DMEM) with 10% fetal calf serum (FCS). At 50-60% confluence cells were trypsinized and transferred to a 24-well plate (1×10^4/well).
Following a 48-hour-culture period at 37° C., cells were washed with DMEM only and then covered with medium (DMEM+1% FCS) containing various concentrations of hFGF-2 or hFGF-2 peptides. After 48 hours number of viable cells was determined by adding 3-(4,5-dimethylthiazol-2-yl)-2,5-diphenyltetrazolium bromide (MTT, Sigma-Aldrich, Vienna) as previously described {M05}.

[4] = 146 amino acid variant; cited from earlier work

Row | Substance | binding affinity to fibrinogen (fibrinogen [1]) | binding signal (SPR) (fibrinogen [2]) | activity retained relative to the full length protein ([3]; relative to full length hFGF-2) | proliferative activity / cell growth effect ([3]; 48 hours, DMEM+1% FCS, MTT) | concentration dependence of biological activity ([3]; various concentrations) | isoelectric point [4]
1 | GVCANRYLAMKEDGRLLASKCVTDECFFFERLESNNYNTYRSR (GVCANRYLAMKEDGRLLASKCVTDECFFFERLESNNYNTYRSR; not fully specified (C-terminus); cysteine pairing not given here) [pep2, recombinant truncated hFGF-2 peptide (48 aa) with C-terminal 6x HIS-tag, ~5.2 kD] | high affinity | weak and short binding signals | approximately 50% |  |  | 
2 | Human Fibroblast growth factor-2 [hFGF-2, reference compound] | high affinity |  |  | highest proliferative activity; also recorded: highest cell growth effect | concentration dependent biological activity | 9.6
3 | EERGVVSIKGVCANRYLAMKEDGRLLASKCVTDECFFFERLESNNYNTYRSR (EERGVVSIKGVCANRYLAMKEDGRLLASKCVTDECFFFERLESNNYNTYRSR; not fully specified (C-terminus); cysteine pairing not given here) [pep1, recombinant truncated hFGF-2 peptide (68 aa) with C-terminal 6x HIS-tag, expressed as GST fusion in E. coli and cleaved] | high affinity | weak and short binding signals |  |  |  | 
